# B1: C-terminal HA-tagged wild-type human APCDD1 (SWAMP-HA; pCXN2.1-Wt-SWAMP-HA) (receptor)
# chain: not shown
# notes: Expressed from pCXN2.1 in HEK293T cells; also called HA-tagged APCDD1; HA-tagged SWAMP; not shown: C-terminal HA (hemagglutinin) tag
# Target: T1, c-myc-tagged wild-type human APCDD1 (human, UniProt Q8J025 27-514, limits assumed)
# T1 construct: Expressed from pCXN2.1 in HEK293T cells; also called c-myc-tagged APCDD1; not shown: C-terminal c-myc tag
# Experiment: immunoprecipitation with anti-c-myc antibody from co-transfected HEK293T cells, western blot with anti-HA
# Source text: To examine the 130 KDa fragment, we overexpressed both HA-tagged and c-myc-tagged APCDD1 in HEK293T cells, and performed immunoprecipitation using an anti-c-myc antibody, which was followed by western blot with an anti-HA antibody. […] By contrast, only a faint fragment, 52 KDa in size, was detected in total cell lysate of the L9R mutant construct-transfected cells (FIG. 3C; lane 2, top panel). In addition, a 65 KDa fragment was detected in the medium of the wild-type and the control L9V mutant APCDD1 construct-transfected cells, while no fragment in the medium of the L9R mutant construct-transfected cells (FIG. 3C; lanes 1-3, bottom panel).
# Immunoprecipitation. Expression plasmids of HA-tagged APCDD1 and c-myc-tagged APCDD1 (4 μg each) were co-transfected into HEK293T cells as described above. 48 h after the transfection, the cells were harvested and homogenized in lysis buffer (50 mM Tris-HCl (pH 8.0), 150 mM NaCl, 0.5% NP40, and 1× Complete Mini Protease Inhibitor Cocktail). Total cell lysates were collected by centrifugation at 14,000 rpm for 20 min at 4° C. The samples were incubated with 0.3 μg of normal rabbit IgG (Santa Cruz Biotechnology) and 10 μl of protein A/G plus agarose (Santa Cruz) for 30 min at 4° C., and centrifuged at 10,000 rpm for 1 min at 4° C. […]
binder,measurement,value
B1,binding result,binds
